Patent publication US20100330649A1

How the values were obtained:
[1] = target: His8-cytb5R (soluble form of human cytochrome b5 reductase with N-terminal His8 tag) (human) (UniProt P00387); assay: cell-based or functional assay
[2] = target: His8-cytb5-sd (human cytochrome b5 soluble domain with N-terminal His8 tag) (UniProt P00167)
[3] = target: His8-MBP-fl-cytb5 fusion protein

Sequence of UniProt P00167 (P00167 1-97): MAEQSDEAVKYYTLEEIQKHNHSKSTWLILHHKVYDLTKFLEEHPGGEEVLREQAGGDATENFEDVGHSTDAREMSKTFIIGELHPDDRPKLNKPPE
Sequence of UniProt P00387 (P00387 24-301): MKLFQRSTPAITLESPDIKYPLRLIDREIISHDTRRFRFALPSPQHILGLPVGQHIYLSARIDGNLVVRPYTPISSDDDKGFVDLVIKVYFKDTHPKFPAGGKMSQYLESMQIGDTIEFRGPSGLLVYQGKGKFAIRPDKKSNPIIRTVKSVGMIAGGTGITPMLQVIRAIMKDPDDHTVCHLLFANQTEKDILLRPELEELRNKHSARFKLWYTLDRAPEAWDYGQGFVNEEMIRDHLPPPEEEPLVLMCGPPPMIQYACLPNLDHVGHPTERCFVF

His8-cytb5-sd (human cytochrome b5 soluble domain with N-terminal His8 tag) (from UniProt P00167 1-97)
V/K, µM^-1 s^-1 (steady-state reduction of cytb5 by His8-cytb5R with NADH) [1]: 5e+06 M⁻¹ s⁻¹

His8-cytb5R (soluble form of human cytochrome b5 reductase with N-terminal His8 tag)
Km, µM (steady-state reduction of cytb5 by His8-cytb5R with NADH) [2]: 5 µM
Vmax, s^-1 (steady-state reduction of cytb5 by His8-cytb5R with NADH, absorbance at 413 nm) [2]: 25 s⁻¹

B1: tobacco etch virus (TEV) protease (protein)
chain: GESLFKGPRDYNPISSTICHLTNESDGHTTSLYGIGFGPFIITNKHLFRRNNGTLLVQSLHGVFKVKNTTTLQQHLIDGRDMIIIRMPKDFPPFPQKLKFREPQREERICLVTTNFQTKSMSSMVSDTSCTFPSSDGIFWKHWIQTKDGQCGSPLVSTRDGFIVGIHSASNFTNTNNYFTSVPKNFMELLTNQEAQQWVSGWRLNADSVLWGGHKVFMSKPEEPFQPVKEATQLMNE
site-specific proteolysis of the linker (SDS-PAGE) [3]: a satisfactory reaction was obtained at a ratio of His8-MBP-fl-cytb5 to TEV protease of 10:1 (reaction completed in 30 min)
